5 sequences from publication PMC4837377 can be followed below.

Some results are limits rather than exact numbers.

Data set [1] addresses PA;PB1(1-686) (Influenza A virus A/Victoria/3/1975(H3N2);Influenza A virus A/Victoria/3/1975(H3N2)) (UniProt P03432). Nature of the data set: filter binding.
The target in data set [2] is T1, PA;PB1 (in PA-PB1-PB2(1-116));PB2(1-116) (Influenza A virus A/Victoria/3/1975(H3N2);Influenza A virus A/Victoria/3/1975(H3N2);Influenza A virus A/Victoria/3/1975(H3N2)) (UniProt P03432+H9XIJ5). Nature of the data set: filter binding.
Data set [3] concerns the target PA;PB1(1-686) (Influenza A virus A/Victoria/3/1975(H3N2);Influenza A virus A/Victoria/3/1975(H3N2)) (UniProt P03432). As to the kind of experiment: fluorescence anisotropy. The note with it: 5'-monophosphate.
In data set [4] the test system is PA;PB1(1-686);RanBP5 (Influenza A virus A/Victoria/3/1975(H3N2);Influenza A virus A/Victoria/3/1975(H3N2);Homo sapiens), P03432+O00410-3. As to the kind of experiment: fluorescence anisotropy. The note with it: 5'-monophosphate.
Data set [5] addresses T1, PA;PB1 (in PA-PB1-PB2(1-116));PB2(1-116) (Influenza A virus A/Victoria/3/1975(H3N2);Influenza A virus A/Victoria/3/1975(H3N2);Influenza A virus A/Victoria/3/1975(H3N2)). Nature of the data set: fluorescence anisotropy.
Data set [6] concerns NP. Nature of the data set: fluorescence anisotropy. The note with it: 5'-monophosphate.

T1 sequence (P03432 whole entry, looked up, chain 2 of 2, other chains not shown): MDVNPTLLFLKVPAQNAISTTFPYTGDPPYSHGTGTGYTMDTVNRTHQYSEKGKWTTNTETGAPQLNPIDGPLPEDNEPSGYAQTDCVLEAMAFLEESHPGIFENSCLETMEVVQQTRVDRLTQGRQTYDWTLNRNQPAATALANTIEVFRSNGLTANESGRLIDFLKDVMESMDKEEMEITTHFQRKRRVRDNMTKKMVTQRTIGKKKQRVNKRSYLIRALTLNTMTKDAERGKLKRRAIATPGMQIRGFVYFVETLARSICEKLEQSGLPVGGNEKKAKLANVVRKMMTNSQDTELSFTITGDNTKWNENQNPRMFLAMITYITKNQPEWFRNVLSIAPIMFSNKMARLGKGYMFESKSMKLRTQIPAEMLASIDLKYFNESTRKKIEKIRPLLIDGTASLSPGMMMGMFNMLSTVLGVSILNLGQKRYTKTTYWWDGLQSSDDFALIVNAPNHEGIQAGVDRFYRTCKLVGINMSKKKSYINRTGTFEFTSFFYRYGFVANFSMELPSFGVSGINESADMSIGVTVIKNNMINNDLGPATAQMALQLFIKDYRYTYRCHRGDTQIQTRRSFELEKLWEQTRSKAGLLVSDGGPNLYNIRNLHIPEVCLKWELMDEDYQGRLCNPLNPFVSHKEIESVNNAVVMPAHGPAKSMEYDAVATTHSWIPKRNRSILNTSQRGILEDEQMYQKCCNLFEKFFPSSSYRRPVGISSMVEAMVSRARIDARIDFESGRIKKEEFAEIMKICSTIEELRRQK
PA;PB1(1-686) (Influenza A virus A/Victoria/3/1975(H3N2);Influenza A virus A/Victoria/3/1975(H3N2)), sequence (P03432 whole entry, looked up): as the sequence (P03432 whole entry, looked up, chain 2 of 2, other chains not shown) above
PA;PB1(1-686);RanBP5 (Influenza A virus A/Victoria/3/1975(H3N2);Influenza A virus A/Victoria/3/1975(H3N2);Homo sapiens), P03432+O00410-3, sequence (O00410 whole entry, looked up, chain 1 of 2): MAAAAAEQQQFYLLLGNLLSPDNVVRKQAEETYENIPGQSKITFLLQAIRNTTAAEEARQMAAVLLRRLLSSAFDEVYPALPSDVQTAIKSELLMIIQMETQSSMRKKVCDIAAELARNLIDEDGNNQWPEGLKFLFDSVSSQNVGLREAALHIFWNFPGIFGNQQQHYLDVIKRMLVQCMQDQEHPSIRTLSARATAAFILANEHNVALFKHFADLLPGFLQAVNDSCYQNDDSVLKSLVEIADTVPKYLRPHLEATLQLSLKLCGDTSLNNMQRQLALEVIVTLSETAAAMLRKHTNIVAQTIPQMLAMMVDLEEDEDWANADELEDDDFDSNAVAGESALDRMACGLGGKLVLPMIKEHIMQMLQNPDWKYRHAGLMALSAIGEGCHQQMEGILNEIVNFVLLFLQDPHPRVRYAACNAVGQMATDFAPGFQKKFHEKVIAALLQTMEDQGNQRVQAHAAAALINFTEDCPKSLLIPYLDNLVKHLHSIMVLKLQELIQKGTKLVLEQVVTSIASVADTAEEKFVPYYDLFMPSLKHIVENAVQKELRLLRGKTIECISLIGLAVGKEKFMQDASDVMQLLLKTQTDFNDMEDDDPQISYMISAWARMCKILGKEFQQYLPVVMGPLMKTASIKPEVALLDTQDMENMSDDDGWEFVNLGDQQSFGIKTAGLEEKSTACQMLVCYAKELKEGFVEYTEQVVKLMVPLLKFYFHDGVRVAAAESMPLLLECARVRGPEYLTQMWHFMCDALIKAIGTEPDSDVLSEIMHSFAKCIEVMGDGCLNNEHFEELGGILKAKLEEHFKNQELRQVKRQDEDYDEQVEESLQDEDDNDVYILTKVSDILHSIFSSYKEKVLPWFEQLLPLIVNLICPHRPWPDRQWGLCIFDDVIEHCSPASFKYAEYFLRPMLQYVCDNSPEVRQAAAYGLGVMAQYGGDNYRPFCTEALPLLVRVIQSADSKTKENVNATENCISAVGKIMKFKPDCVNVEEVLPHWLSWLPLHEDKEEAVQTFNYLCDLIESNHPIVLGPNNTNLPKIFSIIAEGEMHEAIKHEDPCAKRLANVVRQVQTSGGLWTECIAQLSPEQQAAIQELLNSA
PA;PB1(1-686);RanBP5 (Influenza A virus A/Victoria/3/1975(H3N2);Influenza A virus A/Victoria/3/1975(H3N2);Homo sapiens), P03432+O00410-3, sequence (P03432 whole entry, looked up, chain 2 of 2): as the sequence (P03432 whole entry, looked up, chain 2 of 2, other chains not shown) above

Regarding AGUAGAAACAAGGGUA [5'-vRNAp (32P)], the dissociation constant (Kd) in data set [1] came to 0.38 nM; in data set [2], 0.19 nM. As to AGUAGAAACAAGGGUA [5'-vRNAp], the Kd in data set [3] is 0.87 nM; in data set [4], more than 1000 nM; in data set [5] (5'-monophosphate), 0.83 nM.

In data set [2], AUACCCUGCUUUUGCU [3'-vRNAp (32P)] returned an equilibrium dissociation constant (Kd) of 17 nM. For AUACCCUGCUUUUGCU [3'-vRNAp], the equilibrium dissociation constant (Kd) in data set [5] amounted to 36 nM. On to UCUCUCUCUCUCUCUCUC [polyUC], for which the Kd in data set [6] was 29 nM; in data set [5] (5'-monophosphate), more than 1000 nM.
